Experimental data taken from the supplement of paper PMC10567573.

B1: SLC22A15 (parent)
chain: IAQYALLGYFIRSWRTLAILVNLQ
B2: FAM189A2 (parent)
chain: VAAALRYLQIFATRRSCIDESQIS

Variants of: B1
Experiment: protein stability index of a GFP-peptide fusion (GPS, HEK-293T) (PSI 1-6); higher = more stable
Conditions: c terminus: a fixed tail appended
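Further: lentivirally expressed fusions sorted by FACS into six bins by GFP to DsRed ratio, PSI derived from sequencing read proportions per bin multiplied by bin number.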

Protein stability index, by site and new letter:
L23: P 2.52 | N 3.06 | M 4.11 | H 2.81 | G 3.35 | V 4.42 | T 3.08 | I 2.5 | F 2.79 | W 2.35 | K 3.75 | Q 3.66 | Y 3.34 | E 2.25 | C 3.16 | A 2.65 | D 3.83 | S 3.76 | R 2.6
N22: W 3.89 | R 1.22 | S 2.85 | V 2.23 | T 1.9 | Y 1.37
Q24: W 2.37 | G 2.66 | S 2.34 | F 2.7 | L 3.01 | P 3.8 | Y 2.82 | K 3.21 | E 3.5 | M 2.6 | H 2.79 | A 4.01 | C 2.35 | R 3.17 | V 2.92 | N 2.07 | I 3.51 | T 3.58 | D 2.49

Variants of: B2
Experiment: as above
Conditions: c terminus: a fixed tail appended

Protein stability index, by site and new letter:
Y7: N 1.98 | A 1.95 | R 1.85 | M 2.22 | E 2.41 | P 2.04 | G 2.02 | I 1.99 | F 3.33 | H 2.25 | K 1.63 | V 2.4 | Q 2.64 | D 1.76 | L 2.68 | C 2.06 | T 2.49 | S 2.92
R14: K 1.79 | C 3.16 | T 2.5 | Y 3.44 | M 1.56 | L 2.5 | H 3.33 | P 2.78 | N 1.5 | F 2.54 | A 1.61 | Q 1.91 | D 2.37 | S 2.38 | G 1.88 | I 3.84 | E 1.12
R15: E 2.13 | T 2.69 | L 1.35 | F 2.52 | S 1.99 | K 2.62 | H 1.94 | I 1.77 | Q 1.67 | C 2.03 | Y 2.55 | M 1.28 | A 2.44 | N 1.59 | D 1.88 | P 1.52 | V 2.81
R6: K 1.68 | P 2.76 | V 2.96 | C 3.52 | S 1.89 | I 4.08 | G 1.81 | E 2.75 | N 1.23 | T 2.41 | H 2.98 | L 3.52 | M 4.04 | Q 2.54 | D 1.69 | Y 2.79
A3: Q 1.8 | G 2.61 | Y 3 | C 2.42 | R 1.71 | V 3.92 | S 1.97 | F 1.83 | N 2.98 | P 1.52 | E 2.34 | T 4.19 | I 4.72 | W 3.75 | H 2.27
Q9: E 3.07 | W 2.67 | I 3.15 | D 2.94 | K 1.7 | V 2.85 | A 2.72 | C 3.59 | N 1.81 | M 5.39 | R 2.24 | L 2.47 | P 2.14 | T 3.26
A12: V 2.09 | F 2.03 | T 1.97 | N 1.28 | M 2.18 | H 2.87 | P 3.67 | C 2.17 | I 3.18 | G 1.65 | L 2.85 | Y 2.74 | Q 2.29 | D 1.97 | S 3.61 | K 2.13 | R 2.46
D19: E 2.01 | A 2.45 | C 3.29
I18: K 2.7 | E 3.15 | W 4.01 | Q 1.95 | L 2.57 | C 2.3 | N 2.27 | T 1.75 | D 2.02 | S 2.14 | H 1.52 | A 2.58 | P 2.1 | Y 2.54 | G 2.2 | V 1.89 | F 4.04
A4: H 1.89 | D 2.19 | P 3.34 | C 2.83 | Y 2.02 | N 2.83 | W 2.27 | L 3.72 | T 1.88 | M 3.33 | R 2.09 | Q 2.73 | G 2.23 | S 1.88 | E 1.25 | F 1.65 | I 2.64
L5: S 1.41 | D 2.36 | C 1.18 | W 3.03 | K 1.48 | T 1.66 | V 4.11 | A 3.88 | N 1.92 | Y 3.26 | I 3.7 | P 2.08 | Q 2.12 | R 2.94 | G 2.91 | H 3.09 | F 2.43 | E 1.87 | M 1.46
S16: T 2.29 | W 2.37 | Q 1.79 | L 2.4 | N 1.57 | A 3.14 | D 1.8 | G 1.41 | C 1.87 | I 1.5 | E 1.79 | V 2.01 | K 2.15 | M 3.14
C17: D 1.9 | K 1.89 | A 1.72 | Q 2.5 | E 1.71 | S 1.74 | Y 3.8 | H 1.27 | V 1.27 | P 2.05 | L 1.58 | I 2.44 | R 1.23 | M 2.58 | G 3.03 | T 2.17
F11: N 1.34 | R 2.63 | H 2.04 | P 2.1 | C 4.31 | Y 2.36 | W 2.83 | K 2.03 | G 1.74 | A 2.69
I10: F 1.73 | T 1.59 | V 1.69 | S 2.19 | Q 2.37 | H 1.7 | C 1.72 | D 2.24 | N 2.51 | P 2.77 | W 2.48 | A 1.73 | Y 2.65 | M 2.68 | G 1.87 | K 2.73 | E 2.08 | R 2.55
L8: V 2.6 | A 2.36 | H 2.08 | T 2.02 | P 1.68 | E 2.04 | F 2.23 | R 1.84 | Y 3.39 | G 1.34 | I 1.98 | D 2.44 | Q 1.6 | N 2.14 | C 2.81 | K 1.89 | S 1.9
V1: G 1.67 | S 1.38 | H 2.36 | W 1.79 | K 1.65 | T 3.71 | D 1.82 | N 1.89 | C 1.68 | Q 2.38 | A 3.21 | M 1.95 | R 2.21 | Y 1.07 | P 1.56 | E 1.58
T13: R 1.51 | A 1.71 | Q 2.08 | F 2.78 | K 2.61 | D 1.52 | H 2.75 | G 1.72 | M 3.45 | S 1.76 | P 2.29 | V 2.99 | N 1.99 | E 2.07
A2: Q 2.29 | F 1.74 | R 2 | E 1.89 | W 3.06 | K 3.28 | M 1.99 | C 2.64 | D 2.63 | P 2.46 | Y 2.15 | L 2.9 | G 2.53 | I 4.56 | N 1.27
